Reference: patent US20240190962A1 (IMMUNOWAKE, published 2024)
Blank lines part the entries; values can stand above or below the binder they belong to.

Key:
human PD-1 [1] = molecular target: T1, human PD-1 (human, UniProt Q15116 25-167, limits assumed); experiment: PD-L2-Fc format, calibrated on PD-L2(wt)-Fc
T1 construct: also called hPD-1

mouse PD-1 [2] = molecular target: T2, mouse PD-1 (mouse, UniProt Q02242 25-167, limits assumed); experiment: PD-L2-Fc format, calibrated on PD-L2(wt)-Fc
T2 construct: also called mPD-1
T2 sequence (looked up): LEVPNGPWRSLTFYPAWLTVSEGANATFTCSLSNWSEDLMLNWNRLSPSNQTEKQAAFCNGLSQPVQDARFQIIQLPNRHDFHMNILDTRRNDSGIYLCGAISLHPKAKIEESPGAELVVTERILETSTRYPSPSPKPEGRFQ

[3] = molecular target: T3, human PD-1 on HEK-PD-1-IL-2 cells (human, UniProt Q15116 25-288); experiment: FACS on HEK-PD-1-IL-2 cells
T3 construct: whole, on cells

[4] = molecular target: T4, human IL-2 receptor (IL-2Rα, IL-2Rβ, IL-2Rγ) (human, UniProt P01589 22-272; P14784 27-551; P31785 23-369); experiment: cell-based or functional assay
T4 sequence (looked up) 1: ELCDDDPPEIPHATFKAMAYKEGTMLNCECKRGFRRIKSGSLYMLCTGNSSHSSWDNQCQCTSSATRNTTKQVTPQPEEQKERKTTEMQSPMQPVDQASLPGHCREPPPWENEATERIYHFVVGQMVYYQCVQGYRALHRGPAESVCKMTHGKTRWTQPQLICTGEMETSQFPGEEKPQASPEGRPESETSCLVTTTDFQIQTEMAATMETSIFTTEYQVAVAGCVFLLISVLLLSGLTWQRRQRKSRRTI
T4 sequence (looked up) 2: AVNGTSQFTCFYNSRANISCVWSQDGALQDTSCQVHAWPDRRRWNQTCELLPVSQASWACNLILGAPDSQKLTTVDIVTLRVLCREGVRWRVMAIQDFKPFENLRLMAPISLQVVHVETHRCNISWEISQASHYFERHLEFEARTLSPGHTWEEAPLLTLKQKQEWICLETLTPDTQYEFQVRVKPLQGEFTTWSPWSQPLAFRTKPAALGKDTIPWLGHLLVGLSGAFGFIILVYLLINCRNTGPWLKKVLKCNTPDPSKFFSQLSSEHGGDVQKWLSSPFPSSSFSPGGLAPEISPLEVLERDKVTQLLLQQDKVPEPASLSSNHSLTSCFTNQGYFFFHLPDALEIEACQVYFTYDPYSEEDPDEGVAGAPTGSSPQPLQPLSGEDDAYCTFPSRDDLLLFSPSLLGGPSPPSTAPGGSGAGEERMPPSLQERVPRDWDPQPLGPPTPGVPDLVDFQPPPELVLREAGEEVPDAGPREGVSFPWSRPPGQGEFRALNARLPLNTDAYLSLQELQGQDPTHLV
T4 sequence (looked up) 3: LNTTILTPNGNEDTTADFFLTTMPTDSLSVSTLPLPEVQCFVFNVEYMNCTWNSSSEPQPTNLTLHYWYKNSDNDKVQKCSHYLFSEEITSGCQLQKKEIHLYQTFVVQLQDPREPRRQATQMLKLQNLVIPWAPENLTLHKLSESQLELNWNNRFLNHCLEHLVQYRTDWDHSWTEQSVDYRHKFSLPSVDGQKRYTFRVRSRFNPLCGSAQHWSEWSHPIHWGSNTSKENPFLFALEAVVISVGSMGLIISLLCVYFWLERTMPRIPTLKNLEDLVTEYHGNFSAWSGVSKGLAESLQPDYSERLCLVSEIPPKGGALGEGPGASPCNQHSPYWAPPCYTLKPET

human PD-1 [5] = molecular target: T1, human PD-1; experiment: PD-L1-Fc format, calibrated on PD-L1(wt)-Fc
mouse PD-1 [6] = molecular target: T2, mouse PD-1; experiment: PD-L1-Fc format, calibrated on PD-L1(wt)-Fc

T1 sequence (Q15116 25-167 limits assumed): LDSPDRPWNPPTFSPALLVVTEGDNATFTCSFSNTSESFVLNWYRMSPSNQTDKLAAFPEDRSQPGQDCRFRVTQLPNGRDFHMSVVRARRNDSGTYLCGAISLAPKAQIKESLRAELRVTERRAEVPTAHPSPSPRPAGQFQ
T3 sequence (Q15116 25-288): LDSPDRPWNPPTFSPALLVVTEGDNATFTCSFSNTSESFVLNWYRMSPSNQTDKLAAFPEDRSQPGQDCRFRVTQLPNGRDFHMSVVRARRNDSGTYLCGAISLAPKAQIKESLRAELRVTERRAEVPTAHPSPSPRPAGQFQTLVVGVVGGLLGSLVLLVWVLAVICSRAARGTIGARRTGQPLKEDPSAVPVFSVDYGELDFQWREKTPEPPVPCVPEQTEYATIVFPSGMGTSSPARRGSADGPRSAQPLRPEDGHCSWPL

- Kd (human PD-1 [1]): 350 nM
- Kd (mouse PD-1 [2]): 230 nM
B1: PD-L2(mut2)-Fc (Fc fusion)
chain 1: LFTVTVPKELYIIEHGSNVTLECNFDTGSHVNLGAITAVLQKVENDTSPHRERATLLEEQLPLGKASFHIPQVQVRDEGQYQCIIIYGVAWDYKYLTLKVKASYRKINTHILKVPETDEVELTCQATGYPLAEVSWPNVSVPANTSHSRTPEGLYQVTSVLRLKPPPGRNFSCVFWNTHVRELTLASIDLQSQMEPRTHPTGGGGSGGGDKTHTCPPCPAPEDEGGPSVFLFPPKPKDTLMISRTPEVTCVVVDVSHEDPEVKFNWYVDGVEVHNAKTKPREEQYNSTYRVVSVLTVLHQDWLNGKEYKCKVSNKALPAPIEKTISKAKGQPREPQVYVYPPSREEMTKNQVSLTCLVKGFYPSDIAVEWESNGQPENNYKTTPPVLDEDGSFALVSKLTVDKSRWQQGNVFSCSVMHEALHNHYTQKSLSLSPGK
chain 2: LFTVTVPKELYIIEHGSNVTLECNFDTGSHVNLGAITAVLQKVENDTSPHRERATLLEEQLPLGKASFHIPQVQVRDEGQYQCIIIYGVAWDYKYLTLKVKASYRKINTHILKVPETDEVELTCQATGYPLAEVSWPNVSVPANTSHSRTPEGLYQVTSVLRLKPPPGRNFSCVFWNTHVRELTLASIDLQSQMEPRTHPTGGGGSGGGDKTHTCPPCPAPEKKGGPSVFLFPPKPKDTLMISRTPEVTCVVVDVSHEDPEVKFNWYVDGVEVHNAKTKPREEQYNSTYRVVSVLTVLHQDWLNGKEYKCKVSNKALPAPIEKTISKAKGQPREPQVYVLPPSREEMTKNQVSLLCLVKGFYPSDIAVEWESNGQPENRYMTWPPVLDSDGSFFLYSKLTVDKSRWQQGNVFSCSVMHEALHNHYTQKSLSLSPGK
notes: also called PD-L2(S58V)

- Kd (human PD-1 [1]): 255 nM
- Kd (mouse PD-1 [2]): 220 nM
B2: PD-L2(mut4)-Fc (Fc fusion)
chain 1: LFTVTVPKELYIIEHGSNVTLECNFDTGSHVNLGAIVAVLLKVENDTSPHRERATLLEEQLPLGKASFHIPQVQVRDEGQYQCIIIYGVAWDYKYLTLKVKASYRKINTHILKVPETDEVELTCQATGYPLAEVSWPNVSVPANTSHSRTPEGLYQVTSVLRLKPPPGRNFSCVFWNTHVRELTLASIDLQSQMEPRTHPTGGGGSGGGDKTHTCPPCPAPEDEGGPSVFLFPPKPKDTLMISRTPEVTCVVVDVSHEDPEVKFNWYVDGVEVHNAKTKPREEQYNSTYRVVSVLTVLHQDWLNGKEYKCKVSNKALPAPIEKTISKAKGQPREPQVYVYPPSREEMTKNQVSLTCLVKGFYPSDIAVEWESNGQPENNYKTTPPVLDEDGSFALVSKLTVDKSRWQQGNVFSCSVMHEALHNHYTQKSLSLSPGK
chain 2: LFTVTVPKELYIIEHGSNVTLECNFDTGSHVNLGAIVAVLLKVENDTSPHRERATLLEEQLPLGKASFHIPQVQVRDEGQYQCIIIYGVAWDYKYLTLKVKASYRKINTHILKVPETDEVELTCQATGYPLAEVSWPNVSVPANTSHSRTPEGLYQVTSVLRLKPPPGRNFSCVFWNTHVRELTLASIDLQSQMEPRTHPTGGGGSGGGDKTHTCPPCPAPEKKGGPSVFLFPPKPKDTLMISRTPEVTCVVVDVSHEDPEVKFNWYVDGVEVHNAKTKPREEQYNSTYRVVSVLTVLHQDWLNGKEYKCKVSNKALPAPIEKTISKAKGQPREPQVYVLPPSREEMTKNQVSLLCLVKGFYPSDIAVEWESNGQPENRYMTWPPVLDSDGSFFLYSKLTVDKSRWQQGNVFSCSVMHEALHNHYTQKSLSLSPGK
notes: also called PD-L2(T56V/S58V/Q60L)

- binding result [3]: binds
- Percent IL-2 signal transduction (HEK-IL-2 reporter assay) [4]: 2.4%
- Percent IL-2 signal transduction (HEK-PD-1-IL-2 reporter assay) [4]: 43.5%
B3: ligand-IL-2 mutant-PD-L2-Fc (Fc fusion)
chain 1: LFTVTVPKELYIIEHGSNVTLECNFDTGSHVNLGAITASLQKVENDTSPHRERATLLEEQLPLGKASFHIPQVQVRDEGQYQCIIIYGVAWDYKYLTLKVKASYRKINTHILKVPETDEVELTCQATGYPLAEVSWPNVSVPANTSHSRTPEGLYQVTSVLRLKPPPGRNFSCVFWNTHVRELTLASIDLQSQMEPRTHPTGGGGSAPTSSSTKKTQLQLEHLLLDLQMILNGINNYKNPKLTDMLTFEFYMPKKATELKHLQCLERELKPLEEVLNLAQSKNFHLRPRDLISNINVIVLELKGSETTFMCEYADETATIVEFLNRWITFCQSIISTLTDKTHTCPPCPAPEDEGGPSVFLFPPKPKDTLMISRTPEVTCVVVDVSHEDPEVKFNWYVDGVEVHNAKTKPREEQYNSTYRVVSVLTVLHQDWLNGKEYKCKVSNKALPAPIEKTISKAKGQPREPQVYVYPPSREEMTKNQVSLTCLVKGFYPSDIAVEWESNGQPENNYKTTPPVLDEDGSFALVSKLTVDKSRWQQGNVFSCSVMHEALHNHYTQKSLSLSPGK
chain 2: LFTVTVPKELYIIEHGSNVTLECNFDTGSHVNLGAITASLQKVENDTSPHRERATLLEEQLPLGKASFHIPQVQVRDEGQYQCIIIYGVAWDYKYLTLKVKASYRKINTHILKVPETDEVELTCQATGYPLAEVSWPNVSVPANTSHSRTPEGLYQVTSVLRLKPPPGRNFSCVFWNTHVRELTLASIDLQSQMEPRTHPTGGGGSDKTHTCPPCPAPEKKGGPSVFLFPPKPKDTLMISRTPEVTCVVVDVSHEDPEVKFNWYVDGVEVHNAKTKPREEQYNSTYRVVSVLTVLHQDWLNGKEYKCKVSNKALPAPIEKTISKAKGQPREPQVYVLPPSREEMTKNQVSLLCLVKGFYPSDIAVEWESNGQPENRYMTWPPVLDSDGSFFLYSKLTVDKSRWQQGNVFSCSVMHEALHNHYTQKSLSLSPGK
notes: also called IL-2(R38D/K43E/E61R)/PD-L2-Fc immunocytokine; construct #11

- Kd (human PD-1 [5]): 98 nM
- Kd (mouse PD-1 [6]): 110 nM
B4: PD-L1(mut7)-Fc (Fc fusion)
chain 1: FTVTVPKDLYVVEYGSNMTIECKFPVEKQLDLAALQVYWMMEDKNIIQFVHGEEDLKVQHSSYRQRARLLKDQLSLGNAALQITDVKLQDAGVYTCLIAYGGADYKRITVKVNAPYNKINQRILVVDPVTSEHELTCQAEGYPKAEVIWTSSDHQVLSGKTTTTNSKREEKLFNVTSTLRINTTTNEIFYCTFRRLDPEENHTAELVIPELPLAHPPNERGGGGSGGGDKTHTCPPCPAPEDEGGPSVFLFPPKPKDTLMISRTPEVTCVVVDVSHEDPEVKFNWYVDGVEVHNAKTKPREEQYNSTYRVVSVLTVLHQDWLNGKEYKCKVSNKALPAPIEKTISKAKGQPREPQVYVYPPSREEMTKNQVSLTCLVKGFYPSDIAVEWESNGQPENNYKTTPPVLDEDGSFALVSKLTVDKSRWQQGNVFSCSVMHEALHNHYTQKSLSLSPGK
chain 2: FTVTVPKDLYVVEYGSNMTIECKFPVEKQLDLAALQVYWMMEDKNIIQFVHGEEDLKVQHSSYRQRARLLKDQLSLGNAALQITDVKLQDAGVYTCLIAYGGADYKRITVKVNAPYNKINQRILVVDPVTSEHELTCQAEGYPKAEVIWTSSDHQVLSGKTTTTNSKREEKLFNVTSTLRINTTTNEIFYCTFRRLDPEENHTAELVIPELPLAHPPNERGGGGSGGGDKTHTCPPCPAPEKKGGPSVFLFPPKPKDTLMISRTPEVTCVVVDVSHEDPEVKFNWYVDGVEVHNAKTKPREEQYNSTYRVVSVLTVLHQDWLNGKEYKCKVSNKALPAPIEKTISKAKGQPREPQVYVLPPSREEMTKNQVSLLCLVKGFYPSDIAVEWESNGQPENRYMTWPPVLDSDGSFFLYSKLTVDKSRWQQGNVFSCSVMHEALHNHYTQKSLSLSPGK
notes: also called PD-L1(I54Q/E58M/R113T/M115L/S117A)
